In article PMC7817693:
Several values for one entry are separate records, joined by “and”; a condition that tells them apart may be missing. Equal entries are not always repeated.

The sequences below were run against p53 (94-393) WT, thermostable deltaN (Homo sapiens) (UniProt P04637) (assay: fluorescence polarization). Details: FP at 25 °C, 2.5 nM FAM-dsDNA, 200 or 275 mM NaCl, 20 mM bis-tris propane pH 6.8, 5% glycerol, 0.1 mg/ml BSA, 0.5 mM TCEP, 10 min; mean of n = 2.
Chain of p53 (94-393) WT, thermostable deltaN (Homo sapiens) (P04637 94-393, stated change not applied): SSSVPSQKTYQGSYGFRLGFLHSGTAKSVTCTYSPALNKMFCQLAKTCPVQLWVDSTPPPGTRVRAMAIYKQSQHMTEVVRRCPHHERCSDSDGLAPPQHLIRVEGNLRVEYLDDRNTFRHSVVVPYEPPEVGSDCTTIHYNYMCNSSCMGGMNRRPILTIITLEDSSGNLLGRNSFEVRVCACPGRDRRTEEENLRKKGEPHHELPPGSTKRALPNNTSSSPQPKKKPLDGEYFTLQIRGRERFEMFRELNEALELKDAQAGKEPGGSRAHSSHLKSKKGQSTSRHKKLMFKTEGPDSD

Q: Which Kd does the source give for “ATGATGATGAACATGTCCCAACATGTTGATATGATG (double strand) [p21 RE]” here?
A: 26 nM and 23 nM

Q: With “ATGATGATGAACGTGTCCGGACAGGTCGATATGATG (double strand) [NOXA_3/13]” as the sequence, how does the Kd read?
A: 23 nM and 60 nM

Q: How did the Kd turn out when “ATGATGATGGGCATGTCTGGGCATGTCTATATGATG (double strand) [3Q05 pdb RE]” was run?
A: 6 nM

Q: For “ATGATGATAGGCATGTCCCAACATGCCCATATGATG (double strand) [APBB2 RE]”, which Kd is on record?
A: 10 nM and 40 nM

Q: With “ATGATGATGAACATGCCCCAGCATGTTGATATGATG (double strand) [p21_8/13]” as the sequence, how does the Kd read?
A: 33 nM and 99 nM

Q: Which Kd does the source give for “ATGATGATGAGCGTGTCCGGGCAGGTCGATATGATG (double strand) [NOXA RE]” here?
A: 45 nM and 446 nM

Q: With “ATGATGATAGACAAGTCAGGACTTAACTATATGATG (double strand) [MDM2 RE]” as the sequence, how does the Kd read?
A: 20 nM and 97 nM

Q: With “ATGATGATGGGCAGGTCCGGACTTGTCGATATGATG (double strand) [BAX_8/13]” as the sequence, how does the Kd read?
A: 8 nM and 40 nM

Same assay, conditions: inosine (written as G): strand 1 nt 21 (RE position 13); strand 2 nt 21 (opposite RE position 8); FP at 25 °C, 2.5 nM FAM-dsDNA, 200 or 275 mM NaCl, 20 mM bis-tris propane pH 6.8, 5% glycerol, 0.1 mg/ml BSA, 0.5 mM TCEP, 10 min; mean of n = 2

Q: “ATGATGATGGGCAGGCCCGGGCTTGTCGATATGATG (double strand) [BAX_8/13 I/C]” was tested. Which Kd did it give?
A: 9 nM and 83 nM

Same assay, conditions: inosine (written as G): strand 2 nt 21 and 11 (opposite RE positions 8 and 18); supplement also prints I at strand 1 nt 21 (RE position 13), Table 1 prints G there; FP at 25 °C, 2.5 nM FAM-dsDNA, 200 or 275 mM NaCl, 20 mM bis-tris propane pH 6.8, 5% glycerol, 0.1 mg/ml BSA, 0.5 mM TCEP, 10 min; mean of n = 2

Q: For “ATGATGATAGGCATGCCTAGGCATGCCTATATGATG (double strand) [6FJ5_8/18 I/C]”, which Kd is on record?
A: 8 nM and 58 nM
